The data set is described as follows: yeast display, Sf9 membrane polyspecificity reagent, FACS + sequencing; frameworks hold sequencing errors. The method in brief: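 Galactose-induced (36–48 hours) yeast carrying a synthetic nanobody display library were exposed to 10% biotinylated, detergent-solubilized Sf9 membrane reagent at 4 °C for 1 hour. FACS followed streptavidin microbead enrichment, using low and high (top ~1%) gates for expression (anti-HA) and reagent binding (streptavidin). Colony PCR, MiSeq 2 × 250 sequencing and CDR-length filtering followed. Labels for polyreactivity reflect the gate of origin.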
On to “QVQLVESGGGLVQAGGSLRLSCAASGSIIKPYDMGWYIQAPGKERELVAAIRSSGGRTNYADSVKGRFTISRDNAKNTVYLQMNSLKPEDTAVYYCAAGYVSYWYYRYDYWGQGTQVTVSS”, for which the “polyreactivity (PSR sort gate)” value is given as “high polyreactivity”.

As to “QVQLVESGGGLVQAGGSLRLSCAASGSIILYYAIGWYRQAPGIERELVAGIRRGGRTNYADSVKGRFTISRDNAKNTVYLQMNSLKPEDTAVYYCAKGGYWGQGSQVTVSS”, the “polyreactivity (PSR sort gate)” value is reported as “high polyreactivity”.

For the sequence “QVQLVESGGGLVQAGGSLRLSCAASGSIIPGYTMGWYRQAPGKERELVAAITSSGGSTYYADSVKGRFTISRDNAKNTVYLQMNSLKPEDTAVYYCNAPFWGYRTSFSYPVVQRFDYWGQGTQVPVSS”, the “polyreactivity (PSR sort gate)” value was “low polyreactivity”.

On to “QVQLVESGGGLVQAGGSLRLSCAASGSIIPRNAMGWYRQAPGKEMELVAAIRKSGGSTYYADSVKGRFTFCRDIAKNTVYLQMNSLKPEDTAVYYCAKPYYVPSWLSPIYNYWGQGTQVTESS”, for which the “polyreactivity (PSR sort gate)” value is “low polyreactivity”.

Regarding “QVQLVESGGGLVQAGGSLRLSCAASGSIISDYALGWYRPAPGKERELVAGISSGGGTTYADSVKGRFTISRDNAKNTVYLQMNSLKPEDTAVYYCNKQDQPVGRSGYPYGYDYWGQGTQVTVSS”, the “polyreactivity (PSR sort gate)” value is recorded as “low polyreactivity”.

On to “QVQLVESGGGLVQAGGSLRLSCAASGSIISNYVKGWYRQAPGKERELVAAITRRGGRTYYADSVKGRFTISRDNAKNTVYLQMNSLKPEDTAVYYCAAQTISYSYPIIRYDYWGQGTQVTVSS”, for which the “polyreactivity (PSR sort gate)” value is reported as “low polyreactivity”.

For the sequence “QVQLVESGGGLVQAGGSLRLSCAASGSIISRNAMGWYRQAPGKEREFVAAITRSGGSTSYADSVKGRFTISRDNAKNTVYLQMNSLKPEDTAVYYCSASFARSATAYLFDYWGQGTQVTVSS”, the “polyreactivity (PSR sort gate)” value is recorded as “high polyreactivity”.

Turning to “QVQLVESGGGLVQAGGSLRLSCAASGSIISYYAMGWYRQAPGKERELVATITSGGITYYADSVKGRFTISRDNAKNTVYLQMNSLKPEDTAVYYCNARYPHGYSSYYRFGYWGQGTQVTVSS”, the “polyreactivity (PSR sort gate)” value is “high polyreactivity”.

Regarding “QVQLVESGGGLVQAGGSLRLSCAASGSIITYYAMGWYRQAPGKERELVAAISSGGSTYYADSVKGRFTISRDNAKSTVYLQMNRLKPEDSAVYYCNADLLDYWSFILFDYWGQGSQVTVSS”, the “polyreactivity (PSR sort gate)” value was “high polyreactivity”.

As for “QVQLVESGGGLVQAGGSLRLSCAASGSIIVGYAMGWYRQAPGKEREMVALISSDCDTYYADSVKGRFTISRDNAKNTVYLQMNSLKAEDTAVYYCNADLYGGGDKSVISGLNGEYEYWGQGTQVTVSS”, the “polyreactivity (PSR sort gate)” value is reported as “low polyreactivity”.

On to “QVQLVESGGGLVQAGGSLRLSCAASGSIIYKYAMGWYRQAPGKERELVAAINSGGRTYYADSVKGRFTISRDNAKNTVYLQMNSLKPEDTAVYYCNAGTYYPGRYDYWGQGTQVTVSS”, for which the “polyreactivity (PSR sort gate)” value is reported as “low polyreactivity”.

“QVQLVESGGGLVQAGGSLRLSCAASGSIIYPYAMGWYRQAPGKERELVASINWRTGSTYYADSVKGRFTISRDNAKNTVYLQMNSLKPEDTAVYYCAARLDYYTGFDYWGQGTQVTVSS”: the “polyreactivity (PSR sort gate)” value was “low polyreactivity”.

Turning to “QVQLVESGGGLVQAGGSLRLSCAASGSIIYRNVMGWYRQAPGKERELVAAISSNGGRTYYADSVKGRFTISRDNAKNTVYLQMNSLKPEDTAVYYCAADTYPGTYYWGQGTQVTVSS”, the “polyreactivity (PSR sort gate)” value is on record as “high polyreactivity”.

Turning to “QVQLVESGGGLVQAGGSLRLSCAASGSIIYRYAMGWYRQARGKERELVAAISTTGGRTYYADSVKGRFTISRDNAKNTVYLQMNSLKPEDTAVYYCNTYGSGTHSTGYDYWGQGTQVTVSS”, the “polyreactivity (PSR sort gate)” value was “low polyreactivity”.

“QVQLVESGGGLVQAGGSLRLSCAASGSIIYTNAMGWYRQAPGKERELVAAITGTTTTNYADSVKGRFTISRDNAKNTVYLQKTSLKPEDTAVYYCNADYDRSRVYYSVELYDYWGQGTQVTVSS”: the “polyreactivity (PSR sort gate)” value was “low polyreactivity”.

“QVQLVESGGGLVQAGGSLRLSCAASGSILAGNTMVSYRQAPGKERELVATISKRGGSTYYADSVKGRFTISRDNAKNTVYLQMNSLKPEDTAVYYCAAALRAKHYYWGQGTQVTVSS”: the “polyreactivity (PSR sort gate)” value is on record as “high polyreactivity”.

Regarding “QVQLVESGGGLVQAGGSLRLSCAASGSILAGYAMGWYRQAPGKERELVAAISDSGGNTYYADSVKGRFTISRDTAKNTVYLQMNSLKPEDTAVYYCAADLGYGPLRELEYWGQGTQVNVSS”, the “polyreactivity (PSR sort gate)” value was “low polyreactivity”.

For the sequence “QVQLVESGGGLVQAGGSLRLSCAASGSILAHYAMGWYRQAPGKERELVAGISSGGSTNYADSVKGRFTISRDNAKNTVYLQMNSLKPEDTAVYYCNADQDFLFIGYLFDYWGQGTQVTVSS”, the “polyreactivity (PSR sort gate)” value was “low polyreactivity”.

Regarding “QVQLVESGGGLVQAGGSLRLSCAASGSILARNAMGWYRQAPGKERELVAAISNSGSTNYADSVKGRFTISRDNAKNTVYLQMNSLKPEDPAGYYCAKDADHGWFEYDYWGQGTQVTVSS”, the “polyreactivity (PSR sort gate)” value was “low polyreactivity”.

For “QVQLVESGGGLVQAGGSLRLSCAASGSILDHYAMGWYRQAPGKEREFVAAISIRGGSTYYADSVKGRFTISRDNAKNTVYLQMNSLKPEDTAVYYCNALSNYVYRRNDYWGQGTQVTVSS”, the “polyreactivity (PSR sort gate)” value is listed as “low polyreactivity”.

Consider “QVQLVESGGGLVQAGGSLRLSCAASGSILDPYVMGWYRQSPGKEWELVAAITQSGGSTYYADSVKGRFTISRDNAKNTVYLQMNSLKPEDTAVYYCATTRPIRRTSARYNYWGQGTQVTVSS”, for which the “polyreactivity (PSR sort gate)” value was “low polyreactivity”.

With “QVQLVESGGGLVQAGGSLRLSCAASGSILDTNAMGWYRQAPGKERELVARIDIDGSTNYADSVKGRFTISRDNAKNTVYLQMNSLKPEDTAVYYCNKDHSSYGASGYDYWGQGTQVTVSS”, the “polyreactivity (PSR sort gate)” value was “low polyreactivity”.

As for “QVQLVESGGGLVQAGGSLRLSCAASGSILEIYAMGWYRQAPGKEREFVASISWDVSSTYYADSVKGRFTISRDNAKNTVYLQMNSLKPEDTAVYYCATSLVWGLYDWYYDLSAAFDYWGQGTQVTVSS”, the “polyreactivity (PSR sort gate)” value is given as “low polyreactivity”.

“QVQLVESGGGLVQAGGSLRLSCAASGSILESIVMGWYRQAPGKERELVASISSSGDSSYADSVKGRFTISRDNAKNTVYLQMNSLKPEDTAVYYCAADRWYWTYALYYWGQGTQVTVSS”: the “polyreactivity (PSR sort gate)” value is listed as “low polyreactivity”.

Turning to “QVQLVESGGGLVQAGGSLRLSCAASGSILESNVMGWYRQAPGKERELVASISSSGDSTYADSVKGRFTISRDNAKNTVYLQMNSLKPEDTAVYYCAADAPGADFDYWGQGTQVTVSS”, the “polyreactivity (PSR sort gate)” value is listed as “low polyreactivity”.

In the case of “QVQLVESGGGLVQAGGSLRLSCAASGSILFNNAMGWYRQAPGKERELVAAIRSNGGNTYYADSVKGRFTISCDNAKNTVYLQMNSLKPEDTAVYYCAAEKTLYGGGGWTRWFHYTYGYWGQGTQVTVSS”, the “polyreactivity (PSR sort gate)” value was “high polyreactivity”.

In the case of “QVQLVESGGGLVQAGGSLRLSCAASGSILFSYAMGWYIQAPGKEREFVAAITFSGGRTYYADSVKGRFTISRDNAKNTVYLQMNSLKPEDTAVYYCAASYLLIYTQGYRAEYEYWGQGTQVTVSS”, the “polyreactivity (PSR sort gate)” value is “low polyreactivity”.

For the sequence “QVQLVESGGGLVQAGGSLRLSCAASGSILFSYAMGWYRQAPGKERELVAAINRGDGNTYADSVKGRFTISRDNAKNTVYLQMNSLKPEDTAVYYCNADLFPGYVSYPEYDYWGQGTQVTVSS”, the “polyreactivity (PSR sort gate)” value is on record as “low polyreactivity”.

For “QVQLVESGGGLVQAGGSLRLSCAASGSILGGNAMGWYRQAPGKERELVAANTFSGGGTYYADSVKGRFTISRDNAKNTVYLQMKSLKPEDTAVYYCNADYKSTVFRYSGSRNYWGQGTQVTVSS”, the “polyreactivity (PSR sort gate)” value is reported as “low polyreactivity”.

On to “QVQLVESGGGLVQAGGSLRLSCAASGSILGHYAMGWYRQAPGTERELVAAISWSGGSTYYADSVKGRFTISRDNAKNTVYLQMNSLKPEDTAVYYCNAAAILYTSDGSLYWYDYWGQGTQVTVSS”, for which the “polyreactivity (PSR sort gate)” value is given as “low polyreactivity”.

With “QVQLVESGGGLVQAGGSLRLSCAASGSILGINVMGWYRQAPGKERELVAAISWRGGRTYYADSVKGRFTISRDNAKNTVYLQMNSLKPEDTAVYYCAAYFYSTSYGADRGVDYWGQGTQVTVSS”, the “polyreactivity (PSR sort gate)” value is recorded as “high polyreactivity”.

As for “QVQLVESGGGLVQAGGSLRLSCAASGSILGPYAMGWYRQAPGKERELVAANSQSGARTYYADSVKGRFTISRDNAKNTVYLQMNSLKPEDTAVYYCAAQSRKGGWSAYYYWGQGTQVTVSS”, the “polyreactivity (PSR sort gate)” value is listed as “high polyreactivity”.

For “QVQLVESGGGLVQAGGSLRLSCAASGSILGQNAMGWSRQAPGKEREWVAAIRSSGGSTYYADSVKGRFTISRDNAKNTVYLQMNSRNPEDTAVYYCADDYYTSADYVDYYYWGQGTQVTVSS”, the “polyreactivity (PSR sort gate)” value was “low polyreactivity”.

As for “QVQLVESGGGLVQAGGSLRLSCAASGSILGRYAMGWYRQAPGKERELVAAISYRGGSTYYADSVKGRFTISRDNAKNTVYLQMNSLKPEDTAVYYCATRDPAFYRRYDYWGQGTQVTVSS”, the “polyreactivity (PSR sort gate)” value was “high polyreactivity”.

Take “QVQLVESGGGLVQAGGSLRLSCAASGSILGVYTMGWYRQAPGKERELVARIRLSGGSTYYADSVKGRFTISRDNAKNTVYLQMNSLIPEDTAVYYCAARYSRARFTDPYYYWGQGTQVTVSS”: the “polyreactivity (PSR sort gate)” value is given as “high polyreactivity”.

With “QVQLVESGGGLVQAGGSLRLSCAASGSILGYYVMGWYRQAPGKERELVAAISWSSGSTYYADSVKGRFTISRDNAKNTVYLQMNSLKPEDTAVYYCNASNVYFWFVTLEFDYWGQGTQVTVSS”, the “polyreactivity (PSR sort gate)” value is given as “low polyreactivity”.

Take “QVQLVESGGGLVQAGGSLRLSCAASGSILIVYAMGWYRQAPGKERELVAAITRGGRTNYADSVKGRFTISRDYAKNTVYLQMNSLKPEDPAVYYCAAYTESYGGSDYDYWGQGTQVTVSS”: the “polyreactivity (PSR sort gate)” value is “high polyreactivity”.

As to “QVQLVESGGGLVQAGGSLRLSCAASGSILKNNAMGWYRQAPGKERELVAAITYSSGSTYYADSVKGRFTISRDNAKNTVYLQMNILKPEDTAVYYCATDPEGSTGGGYEYWGQGTQVTVSS”, the “polyreactivity (PSR sort gate)” value was “low polyreactivity”.

On to “QVQLVESGGGLVQAGGSLRLSCAASGSILKSNAMGGSRQAPGKARELVAANSSSGDSTYYADSVKGRFTISRDNAKNTVYLQMHSLKPADTAVYSCAARLRGRTRTGYYWGQGTQVTVSS”, for which the “polyreactivity (PSR sort gate)” value is “high polyreactivity”.

For “QVQLVESGGGLVQAGGSLRLSCAASGSILLEYAMGWYRQAPGKERELVAAISRGGTTNYADSVKGRFTISRDNAKNTVYLQMNSLKPEDTAVYYCAAGKIGRRGHQNRLDLDYWGQGTQVTVSS”, the “polyreactivity (PSR sort gate)” value is reported as “low polyreactivity”.

The values are drawn from the nanobody polyreactivity screen of Harvey et al. (2022).
